Experimental data reported in paper PMC2659241 (The Journal of Biological Chemistry, 2009).

Target: Recombinant human moesin FERM domain (human, UniProt P26038 2-295)
Assay: cross-linking

Sequence of Recombinant human moesin FERM domain (P26038 2-295): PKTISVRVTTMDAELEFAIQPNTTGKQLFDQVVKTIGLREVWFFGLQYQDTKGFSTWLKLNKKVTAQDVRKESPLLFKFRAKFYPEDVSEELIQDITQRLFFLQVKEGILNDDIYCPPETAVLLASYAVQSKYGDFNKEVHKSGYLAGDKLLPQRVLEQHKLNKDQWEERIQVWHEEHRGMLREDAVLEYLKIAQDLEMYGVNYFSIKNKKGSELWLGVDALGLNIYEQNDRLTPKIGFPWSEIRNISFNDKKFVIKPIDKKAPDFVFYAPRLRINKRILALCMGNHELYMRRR

With RRLKKGKKSKRSMNDPY [L-selectin cytoplasmic tail peptide] the “stoichiometry N” value was 1.
